Data as given in patent US7560245B2, “Luciferase and methods for measuring intracellular ATP using the same” (Kikkoman Corporation, priority 1997, dated 2009).
Several values for one entry are separate records, joined by “and”; a condition that tells them apart may be missing. Identical values can stand only once.

Key:
[1] = Comparison of IC50: benzalkonium chloride concentration inactivating luciferase by 50%; type: biochemical; details: 10 minutes contact at room temperature, 0.01 to 0.1% benzalkonium chloride
Procedure: Benzalkonium chloride and various luciferases were contacted with each other for 10 minutes. Then the benzalkonium chloride concentration (IC50), at which activity is inactivated by 50% was determined. Equal amounts of luciferase solution prepared at this concentration and 0.01 to 0.1% benzalkonium chloride were mixed, and then allowed to stand for 10 minutes at room temperature. Subsequently, 100 μl of substrate solution was added to the mixture. Immediately after addition, the light emission was measured using Berthold Lumat LB-9501.

E. coli ATCC 25922 = assay: Detection of intracellular ATP, 0.25% BAC extraction reagent; type: cell-based, Escherichia coli; details: for Relative ratio (%): TCA extraction method = 100%
Procedure: (§1) A standard technique used herein was TCA extraction method wherein intracellular ATP is extracted using trichloroacetic acid (TCA) and the amount of ATP extracted is measured using luciferin-luciferase luminescence reaction. TCA extraction method is excellent in extraction efficiency. Further in TCA extraction method no inhibition of luminescence reaction is caused by TCA because emission is measured after the sample containing TCA is diluted 1:100. Because of this dilution, however, TCA extraction method is complicated and can cause a decrease in the measuring sensitivity. Benzalkonium chloride (BAC, Japanese Pharmacopoeia) was used. ATP extraction reagent was prepared by dissolving this surfactant at 0.25% concentration into 25 mM Tricine (pH 7.75). Four strains, Escherichia coli (ATCC 25922), Staphylococcus aureus (ATCC 25923), Pseudomonas aeruginosa (ATCC 27853) and Enterococcus faecalis (ATCC 29212) were used. In standard techniques, a sample, undiluted solution, was prepared by culturing the prescribed microorganisms on a normal broth medium (produced by Eiken chemical Co., Ltd.) at 35° C. overnight. In the method of the present invention, a sample diluted solution was prepared by diluting an undiluted solution of the culture fluid to 1:100 with sterile water. Luminescence reagent was prepared by adding various luciferase to solution containing 0.15 mM luciferin, 6 mM EDTA, 15 mM magnesium acetate, 0.2 mM dithiothreitol, 0.5% BSA and 25 mM HEPES (pH 7.75). The amount of luciferase to be added was prepared such that the light emission produced when 100 μl of 2×10^−8 M ATP standard solution was added to 100 μl of the luminescence reagent would be the same amount of the light emission produced when a luminescence reagent attached to Luciferase LU (Kikkoman Corporation) was used. ATP extraction reagent 100 μl was added to 100 μl of a sample. The solution was allowed to stand for 20 seconds at room temperature. Then 100 μl of the luminescence reagent was added to this solution. Immediately after addition, the light emission was measured using Lumat LB-9501 produced by Berthold. 10% trichloro acetate solution 100 μl was added to 100 μl of a sample and the solution was allowed to stand for 1 minute. 25 mM Tricine (pH 7.75) 9.8 ml was added to this extract, and then the extract was well stirred. 25 mM Tricine (pH 7.75) and 100 μl of a luminescence reagent attached to CheckLite LU (produced by Kikkoman Corporation) were added to 100 µl of the sample. Immediately after addition, the light emission was measured using Lumat LB-9501 produced by Berthold. The relative ratio of the light emissions obtained by the use of the luminescence reagents using various luciferase types is also shown in these tables. Here the light emission obtained by the standard technique (TCA extraction method) was defined as 100%.

[2] = tested on: Escherichia coli, Staphylococcus aureus, Pseudomonas aeruginosa and Enterococcus faecalis; assay: Detection of intracellular ATP, summary over the four strains; type: cell-based; details: 0.25% BAC extraction reagent
Procedure: as §1, with “In standard techniques, a sample, undiluted solution, was prepared by culturing the prescribed microorganisms on a normal broth medium (produced by Eiken chemical Co., Ltd.) at 35° C. overnight. In the method of the present invention, a sample diluted solution was prepared by diluting an undiluted solution of the culture fluid to 1:100 with sterile water.” left out, “ATP extraction reagent 100 μl was added to 100 μl of a sample. The solution was allowed to stand for 20 seconds at room temperature.” left out, “10% trichloro acetate solution 100 μl was added to 100 μl of a sample and the solution was allowed to stand for 1 minute. 25 mM Tricine (pH 7.75) 9.8 ml was added to this extract, and then the extract was well stirred.” left out, “Here the light emission obtained by the standard technique (TCA extraction method) was defined as 100%.” left out

[3] = Surfactant resistance: change of light emission with time, 0.4% benzalkonium chloride; type: biochemical; details: for decay of light emission with time: FIG. 2 and 3
Procedure: (§2) Enzyme samples were obtained by preparing luciferase samples derived from various firefly species using enzyme-diluted solution (1 mM EDTA, 1 mM 2-mercaptoethanol, 5% glycerol, 50 mM HEPES, (pH7.5)) to achieve 0.5 MLU/ml concentration.
(§3) 50 μl of 0.4% benzalkonium chloride (25 mM Tricine at pH 7.75) and then 50 μl of the enzyme sample were added to 100 μl of substrate solution (4 mM ATP, 0.4 mM luciferin, 10 mM magnesium sulfate, 50 mM HEPES (pH 7.5)). After the solution was stirred for 5 seconds, the light emission was measured every second using Berthold Lumat LB-9501 for 1 minute.
Along the vertical axis in this figure, the relative ratio of the light emission was plotted with the initial amount of light emitted considered to be 100% upon use of 25 mM Tricine (pH 7.75) instead of 0.4% benzalkonium chloride.
(§4) To compare surfactant resistance of mutant luciferase with that of known luciferase, changes in emission with time were measured according to the aforementioned methods of measuring surfactant resistance.

P. aeruginosa ATCC 27853 = assay: Detection of intracellular ATP, 0.25% BAC extraction reagent; type: cell-based, Pseudomonas aeruginosa; details: for Relative ratio (%): TCA extraction method = 100%
Procedure: as §1

E. faecalis ATCC 29212 = assay: as above; type: cell-based, Enterococcus faecalis; details: for Relative ratio (%): TCA extraction method = 100%
Procedure: as §1

S. aureus ATCC 25923 = assay: as above; type: cell-based, Staphylococcus aureus; details: for Relative ratio (%): TCA extraction method = 100%
Procedure: as §1

[4] = Comparison of emission rate (remaining activity) with 0.4% benzalkonium chloride; type: biochemical; details: for Light emission (RLU) Without extraction reagent: 25 mM Tricine pH 7.75 instead of 0.4% benzalkonium chloride; for Light emission (RLU) Without extraction reagent / Light emission (RLU) With extraction reagent: 5 seconds waiting, 3 seconds measuring; for Light emission (RLU) With extraction reagent: 0.4% benzalkonium chloride
[5] = as above; type: biochemical; details: emission with 0.4% benzalkonium chloride divided by control (25 mM Tricine)
Procedure: as §2, §3
The influence of the enzyme solution, substrate solution and benzalkonium chloride used when measuring change with time, on the measurement values taken under actual emission measurement conditions, was examined.
In addition, the emission rate (remaining activity) was calculated by dividing the light emission measured in the presence of 0.4% benzalkonium chloride by a control value. Here the control value was the light emission upon use of 25 mM Tricine at pH 7.75 instead of 0.4% benzalkonium chloride.

[6] = Surfactant resistance: change of light emission with time, 0.8% benzethonium chloride; type: biochemical; details: FIG. 4
Procedure: as §2
[…] After the solution was stirred for 5 seconds, the light emission was measured every second using Berthold Lumat LB-9501 for 1 minute.
as §4

Molecule	IC50 (benzalkonium chloride concentration at which activity is inactivated by 50%) [1] [%]	Measured value (RLU) (E. coli ATCC 25922)	Relative ratio (%) (E. coli ATCC 25922)	emission of the luminescence reagent [2]	initial light emission ([3]; FIG. 2)	decay of light emission with time [3]	Measured value (RLU) (P. aeruginosa ATCC 27853)	Relative ratio (%) (P. aeruginosa ATCC 27853)	Measured value (RLU) (E. faecalis ATCC 29212)	Relative ratio (%) (E. faecalis ATCC 29212)	Measured value (RLU) (S. aureus ATCC 25923)	Relative ratio (%) (S. aureus ATCC 25923)	Light emission (RLU) Without extraction reagent [4] [RLU]	Light emission (RLU) With extraction reagent [4] [RLU]	luciferase activity (remaining) ([4]; in the presence of 0.1% benzalkonium chloride)	Emission rate (remaining activity) [5]	decay of light emission with time [6]	improvement of initial light emission ([3]; compared with HEIKE L mutant, FIG. 3)
North American firefly: luciferase derived from North American firefly, a commercial product (Sigma, L-9506) [reference compound]	0.014	153	(0.1) %	No emission was observed	low in the initial light emission	decayed rapidly	553	(0.3) %	113	(0.1) %	163	(0.1) %	452563	97790	about 20%	21.6%	–	–
HIK: Polypeptide of SEQ ID NO:6; HEIKE firefly luciferase with Ala217 substituted by Ile and Glu490 by Lys (protein, listed as Luciola lateralis) MENMENDENIVYGPEPFYPIEEGSAGAQLRKYMDRYAKLGAIAFTNALTGVDYTYAEYLEKSCCLGEALKNYGLVVDGRIALCSENCEEFFIPVLAGLFIGVGVAPTNEIYTLRELVHSLGISKPTIVFSSKKGLDKVITVQKTVTAIKTIVILDSKVDYRGYQSMDNFIKKNTPQGFKGSSFKTVEVNRKEQVALIMNSSGSTGLPKGVQLTHENIVTRFSHARDPIYGNQVSPGTAILTVVPFHHGFGMFTTLGYLTCGFRIVMLTKFDEETFLKTLQDYKCSSVILVPTLFAILNRSELLDKYDLSNLVEIASGGAPLSKEIGEAVARRFNLPGVRQGYGLTETTSAIIITPEGDDKPGASGKVVPLFKAKVIDLDTKKTLGPNRRGEVCVKGPMLMKGYVDNPEATREIIDEEGWLHTGDIGYYDEEKHFFIVDRLKSLIKYKGYQVPPAELESVLLQHPNIFDAGVAGVPDPIAGELPGAVVVLKKGKSMTEKEVMDYVASQVSNAKRLRGGVRFVDEVPKGLTGKIDGKAIREILKKPVAKM	0.032	97073	(73.1) %	more intense than that from wild-type HEIKE luciferase and thermostable luciferase	–	decayed more slowly than that of the HEIKE I mutant	131134	(78.0) %	7914	(63.7) %	76533	(58.8) %	386429	345159	–	89.3%	more slowly than that of HEIKE I mutant	–
HLK: Polypeptide of SEQ ID NO:4; HEIKE firefly luciferase with Ala217 substituted by Leu and Glu490 by Lys (protein, listed as Luciola lateralis) MENMENDENIVYGPEPFYPIEEGSAGAQLRKYMDRYAKLGAIAFTNALTGVDYTYAEYLEKSCCLGEALKNYGLVVDGRIALCSENCEEFFIPVLAGLFIGVGVAPTNEIYTLRELVHSLGISKPTIVFSSKKGLDKVITVQKTVTAIKTIVILDSKVDYRGYQSMDNFIKKNTPQGFKGSSFKTVEVNRKEQVALIMNSSGSTGLPKGVQLTHENLVTRFSHARDPIYGNQVSPGTAILTVVPFHHGFGMFTTLGYLTCGFRIVMLTKFDEETFLKTLQDYKCSSVILVPTLFAILNRSELLDKYDLSNLVEIASGGAPLSKEIGEAVARRFNLPGVRQGYGLTETTSAIIITPEGDDKPGASGKVVPLFKAKVIDLDTKKTLGPNRRGEVCVKGPMLMKGYVDNPEATREIIDEEGWLHTGDIGYYDEEKHFFIVDRLKSLIKYKGYQVPPAELESVLLQHPNIFDAGVAGVPDPIAGELPGAVVVLKKGKSMTEKEVMDYVASQVSNAKRLRGGVRFVDEVPKGLTGKIDGKAIREILKKPVAKM	0.035	87981	(66.3) %	more intense than that from wild-type HEIKE luciferase and thermostable luciferase	–	slower decay in the light emission	131815	(78.4) %	7998	(64.4) %	72182	(55.4) %	390289	396764	–	101.7% and ~100%	slower decay in light emission than that of HEIKE L mutant	about 20%
